Assay results published in IntAct's records for PubMed 18829461.

B1: Protein phosphatase 1A (Homo sapiens), P35813 (parent)
chain: MGAFLDKPKMEKHNAQGQGNGLRYGLSSMQGWRVEMEDAHTAVIGLPSGLESWSFFAVYDGHAGSQVAKYCCEHLLDHITNNQDFKGSAGAPSVENVKNGIRTGFLEIDEHMRVMSEKKHGADRSGSTAVGVLISPQHTYFINCGDSRGLLCRNRKVHFFTQDHKPSNPLEKERIQNAGGSVMIQRVNGSLAVSRALGDFDYKCVHGKGPTEQLVSPEPEVHDIERSEEDDQFIILACDGIWDVMGNEELCDFVRSRLEVTDDLEKVCNEVVDTCLYKGSRDNMSVILICFPNAPKVSPEAVKKEAELDKYLECRVEEIIKKQGEGVPDLVHVMRTLASENIPSLPPGGELASKRNVIEAVYNRLNPYKNDDTDSTSTDDMW

Variants of: B1
Settings: with cdk9_human CDK9, P50750
cdk9_human CDK9, P50750, sequence (P50750 whole entry): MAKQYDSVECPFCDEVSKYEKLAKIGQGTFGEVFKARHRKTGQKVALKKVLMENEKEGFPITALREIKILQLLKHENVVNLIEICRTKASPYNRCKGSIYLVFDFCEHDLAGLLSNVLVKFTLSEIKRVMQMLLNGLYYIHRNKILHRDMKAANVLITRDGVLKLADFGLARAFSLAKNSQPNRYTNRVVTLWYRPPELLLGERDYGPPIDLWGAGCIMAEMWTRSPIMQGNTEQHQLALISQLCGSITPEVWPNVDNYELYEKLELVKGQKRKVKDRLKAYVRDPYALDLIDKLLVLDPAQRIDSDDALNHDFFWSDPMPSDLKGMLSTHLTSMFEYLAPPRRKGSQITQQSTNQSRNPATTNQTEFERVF

effect of a mutation on the interaction	Variant
with no effect	MGAFLDKPKMEKHNAQGQGNGLRYGLSSMQGWRVEMEDAHTAVIGLPSGLESWSFFAVYDGHAGSQVAKYCCEHLLDHITNNQDFKGSAGAPSVENVKNGIRTGFLEIDEHMRVMSEKKHGADRSGSTAVGVLISPQHTYFINCGDSRGLLCRNRKVHFFTQDHKPSNPLEKERIQNAGGSVMIQRVNGSLAVSRALGDFDYKCVHGKGPTEQLVSPEPEVHDIERSEEDDQFIILACNGIWDVMGNEELCDFVRSRLEVTDDLEKVCNEVVDTCLYKGSRDNMSVILICFPNAPKVSPEAVKKEAELDKYLECRVEEIIKKQGEGVPDLVHVMRTLASENIPSLPPGGELASKRNVIEAVYNRLNPYKNDDTDSTSTDDMW [D239N]
